The first assay deals with human SOCS1 (residues 53-211) in complex with Elongins B and C (human) (UniProt O15524). The experiment in a line: ITC. For orientation: In ITC the heat of successive injections is recorded.
In the case of IFNαR2 (pY269), the Kd came out at 2650 nM.
IL-2Rβ (pY355) yielded an equilibrium dissociation constant (Kd) of 614 nM.
Substance IL-2Rβ (pY392) registered a dissociation constant (Kd) of 1030 nM. Against the preceding substance, the Kd is about 1.7-fold higher.
Same read-out and setting: as for IL-2Rβ (pY510), the figure is 209 nM; as for IL-2Rβ (pY338), 964 nM.

The next assay addresses human JAK1 kinase domain (human) (UniProt P23458).
UniProt P23458, sequence (P23458 869-1153): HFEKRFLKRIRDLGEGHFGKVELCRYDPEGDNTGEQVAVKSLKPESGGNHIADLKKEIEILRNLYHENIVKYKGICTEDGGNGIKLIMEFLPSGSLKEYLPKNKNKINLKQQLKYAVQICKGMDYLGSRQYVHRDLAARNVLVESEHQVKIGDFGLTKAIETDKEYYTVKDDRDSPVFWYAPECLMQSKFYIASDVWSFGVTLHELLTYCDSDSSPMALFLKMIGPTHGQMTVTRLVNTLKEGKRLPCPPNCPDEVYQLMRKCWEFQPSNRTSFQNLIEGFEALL
Assay: not given
The substance “human SOCS1 (residues 53-211) in complex with Elongins B and C (from UniProt O15524 53-211; Q15370 1-118; Q15369 17-112)” came in with an IC50 of inhibition of the JAK1 kinase domain phosphorylating a STAT5b-derived peptide (in vitro kinase assay) of 30 nM.

What is called Kd is the constant that tells how readily two partners part at equilibrium. High values mean weaker binding, low ones tighter binding.

These data come from publication PMC5908791.
